This is an account of results in paper PMC10897178, “FANCJ DNA helicase is recruited to the replisome by AND-1 to ensure genome stability” (EMBO Reports, 2024).

Test [1] deals with T1, Flag-tagged FANCJ wild type (human, UniProt Q9BX63 1-1249).
T1 construct: FANCJ (BRIP1, BACH1) DNA helicase, human, open reading frame; purified as full-length protein; Plasmid from Hisao Masai (Uno et al, 2012); also called FANCJ WT; Flag-FANCJ WT; source: HEK 293T, transiently transfected (pCSII-EF-MCS): in whole-cell extract or nuclear fraction; also purified (anti-Flag M2 agarose, 3x Flag-peptide elution)
T1 sequence (looked up): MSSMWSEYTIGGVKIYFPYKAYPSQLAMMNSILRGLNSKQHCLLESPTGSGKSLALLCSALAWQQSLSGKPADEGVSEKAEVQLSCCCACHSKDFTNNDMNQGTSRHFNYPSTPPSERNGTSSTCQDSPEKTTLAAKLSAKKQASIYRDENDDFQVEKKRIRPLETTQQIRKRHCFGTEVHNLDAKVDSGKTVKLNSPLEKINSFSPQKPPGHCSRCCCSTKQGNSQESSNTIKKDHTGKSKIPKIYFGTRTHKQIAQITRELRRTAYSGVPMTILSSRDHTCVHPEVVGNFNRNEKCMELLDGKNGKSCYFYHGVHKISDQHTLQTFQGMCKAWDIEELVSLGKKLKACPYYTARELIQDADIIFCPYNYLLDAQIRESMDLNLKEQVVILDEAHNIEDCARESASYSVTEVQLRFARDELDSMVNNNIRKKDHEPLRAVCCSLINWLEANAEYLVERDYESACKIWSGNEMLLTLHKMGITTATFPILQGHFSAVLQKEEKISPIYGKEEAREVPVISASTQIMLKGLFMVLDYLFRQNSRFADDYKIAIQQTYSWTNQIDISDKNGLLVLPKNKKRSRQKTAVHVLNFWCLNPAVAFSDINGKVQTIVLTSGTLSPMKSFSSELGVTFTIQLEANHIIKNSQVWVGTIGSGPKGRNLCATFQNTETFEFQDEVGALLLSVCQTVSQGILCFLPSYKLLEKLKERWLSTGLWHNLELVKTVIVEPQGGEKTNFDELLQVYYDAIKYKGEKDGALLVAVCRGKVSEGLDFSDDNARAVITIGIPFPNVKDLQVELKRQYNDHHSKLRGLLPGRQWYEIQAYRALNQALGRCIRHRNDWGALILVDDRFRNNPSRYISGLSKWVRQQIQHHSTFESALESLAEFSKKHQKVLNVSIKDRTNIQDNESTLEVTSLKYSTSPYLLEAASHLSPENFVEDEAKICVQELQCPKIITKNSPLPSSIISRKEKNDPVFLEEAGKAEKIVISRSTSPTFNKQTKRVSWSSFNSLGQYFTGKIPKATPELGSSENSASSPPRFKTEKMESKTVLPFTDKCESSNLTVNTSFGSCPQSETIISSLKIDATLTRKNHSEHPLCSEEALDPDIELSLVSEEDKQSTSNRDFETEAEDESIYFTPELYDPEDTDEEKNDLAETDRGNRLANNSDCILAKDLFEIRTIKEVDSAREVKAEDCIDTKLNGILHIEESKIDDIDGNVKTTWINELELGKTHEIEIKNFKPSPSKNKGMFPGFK
In words: pull-down; GST-SepB α-helix bundle (0.5 µg) on Glutathione Sepharose 4B beads, purified Flag-FANCJ (0.5 µg) added; 25 mM Tris-HCl pH 7.5, 150 mM NaCl, 0.1% Triton X-100, 4 °C; washes with 300 mM NaCl, 1% Triton X-100; Western blot. The settings on record: both partners purified. For orientation: In western blotting, separated proteins are transferred to a membrane and probed.

A further test concerns the target T2, Flag-tagged FANCJ N734H (human, UniProt Q9BX63 1-1249, N734H).
T2 construct: FANCJ (BRIP1), human, full-length; missense variant found in uterine endometrial carcinoma; source: HEK 293T, transiently transfected, purified (anti-Flag M2 agarose)
T2 sequence (looked up): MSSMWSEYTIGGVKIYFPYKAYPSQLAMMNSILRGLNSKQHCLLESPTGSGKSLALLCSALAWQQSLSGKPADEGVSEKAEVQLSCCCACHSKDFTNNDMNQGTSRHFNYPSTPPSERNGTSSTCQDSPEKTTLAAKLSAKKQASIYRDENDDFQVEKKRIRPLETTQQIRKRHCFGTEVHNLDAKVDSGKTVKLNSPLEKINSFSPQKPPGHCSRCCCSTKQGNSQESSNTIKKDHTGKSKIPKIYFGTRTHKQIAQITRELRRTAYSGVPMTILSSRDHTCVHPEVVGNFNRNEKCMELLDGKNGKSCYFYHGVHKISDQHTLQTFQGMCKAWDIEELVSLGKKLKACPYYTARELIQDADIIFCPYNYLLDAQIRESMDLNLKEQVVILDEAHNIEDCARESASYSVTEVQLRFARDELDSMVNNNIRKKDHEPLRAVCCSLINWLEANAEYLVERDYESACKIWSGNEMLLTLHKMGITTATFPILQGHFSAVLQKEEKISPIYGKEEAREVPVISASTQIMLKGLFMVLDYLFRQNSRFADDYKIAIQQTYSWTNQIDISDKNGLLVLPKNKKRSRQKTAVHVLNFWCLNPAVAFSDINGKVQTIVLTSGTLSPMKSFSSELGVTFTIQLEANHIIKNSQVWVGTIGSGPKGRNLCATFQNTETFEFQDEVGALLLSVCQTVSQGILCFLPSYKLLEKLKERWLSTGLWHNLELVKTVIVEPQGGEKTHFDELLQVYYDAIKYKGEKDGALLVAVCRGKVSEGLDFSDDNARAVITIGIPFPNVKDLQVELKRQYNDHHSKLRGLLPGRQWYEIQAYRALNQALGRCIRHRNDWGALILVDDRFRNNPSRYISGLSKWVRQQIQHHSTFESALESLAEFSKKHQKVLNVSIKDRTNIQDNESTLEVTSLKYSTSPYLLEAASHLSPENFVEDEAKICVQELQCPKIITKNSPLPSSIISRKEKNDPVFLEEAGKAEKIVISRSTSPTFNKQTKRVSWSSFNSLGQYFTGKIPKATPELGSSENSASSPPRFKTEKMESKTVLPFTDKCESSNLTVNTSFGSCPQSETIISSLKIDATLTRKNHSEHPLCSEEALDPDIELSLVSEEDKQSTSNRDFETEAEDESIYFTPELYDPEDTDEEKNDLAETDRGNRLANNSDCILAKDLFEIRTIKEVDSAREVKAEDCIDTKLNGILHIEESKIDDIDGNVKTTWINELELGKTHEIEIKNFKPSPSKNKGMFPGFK
The test is described as above. Particulars: both partners purified.

B1: GST-SepB α-helix bundle WT (domain or fragment, human, UniProt O75717 718-824, looked up)
chain: IATEKGQMEEQFWRSVIFHNHLDYLAKNGYEYEESTKNQATKEQQELLMKMLALSCKLEREFRCVELADLMTQNAVNLAIKYASRSRKLILAQKLSELAVEKAAELT
notes: AND-1 (WDHD1), human, α-helix bundle of the SepB domain, amino-acid residues 718-824; Cloned into pGEX-2T; also called GST-SepB α-helix bundle chimeric protein; source: E. coli Rosetta pLysS (DE3), purified (Glutathione Sepharose 4B)
In the case of B1, the binding result (in test [1]; in the test with Flag-tagged FANCJ N734H) was “binds” in each case.
